These results are taken from patent publication US20060104971A1, “Multivalent lymphotoxin beta receptor agonists and therapeutic uses thereof” (Biogen Idec MA Inc., priority 2002, published 2006).

This assay addresses lymphotoxin beta receptor on the surface of HT29 cells (human) (UniProt P36941). The experiment in a line: cell-based or functional assay.

Chain of lymphotoxin beta receptor on the surface of HT29 cells (human) (P36941 31-435): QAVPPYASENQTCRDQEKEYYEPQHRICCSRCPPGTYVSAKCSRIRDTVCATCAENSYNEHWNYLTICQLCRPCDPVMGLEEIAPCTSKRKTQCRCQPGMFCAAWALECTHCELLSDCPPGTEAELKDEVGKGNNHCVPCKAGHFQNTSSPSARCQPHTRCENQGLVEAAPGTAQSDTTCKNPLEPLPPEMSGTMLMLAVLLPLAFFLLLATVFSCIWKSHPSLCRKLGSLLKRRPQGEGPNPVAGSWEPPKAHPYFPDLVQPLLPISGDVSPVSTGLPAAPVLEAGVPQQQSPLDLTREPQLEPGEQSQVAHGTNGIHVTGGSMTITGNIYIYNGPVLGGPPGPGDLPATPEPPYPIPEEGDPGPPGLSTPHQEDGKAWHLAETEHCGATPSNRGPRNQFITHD

For humanized BHA10 antibody, the minimum A450 (plateau of HT29 cell growth, MTT, with interferon gamma) was found to be 0.9 A450.

Regarding humanized CBE11 antibody, the minimum A450 (plateau of HT29 cell growth, MTT, with interferon gamma) stood at 0.8 A450.
